Consider 125 sequences from the supplement of paper PMC9112550, “Optimization of the antimicrobial peptide Bac7 by deep mutational scanning” (BMC Biology, 2022).
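Also: peptides expressed intracellularly from a pBAD plasmid library in pooled LB shake-flask culture, induced with 0.3% L-arabinose, DNA abundance read by NGS, three biological replicates, DESeq2 with apeglm shrinkage.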

This data set relates to Escherichia coli TOP10. Description: shrunken log2 fold change of peptide-encoding DNA abundance (4.5 h post-induction vs induction); higher = less antimicrobial activity (less host growth inhibition). To be noted: time post-induction: 4.5 h; library: site-saturation at positions 5, 18, 19, 20.
As for RRIRDRPPRLPRPRPRPNGLPRP, the “shrunken log2 fold change” value was -0.0178. For RRIRVRPPRLPRPRPRPYMLPRP, the “shrunken log2 fold change” value was -0.71. With RRIRYRPPRLPRPRPRPQGFPRP, the “shrunken log2 fold change” value is -0.0121. For RRIRYRPPRLPRPRPRPGEWPRP, the “shrunken log2 fold change” value is 0.0486. With RRIRGRPPRLPRPRPRPSWGPRP the figure was 0.0507; with RRIRGRPPRLPRPRPRPSSWPRP, 1.05; with RRIRARPPRLPRPRPRPQLTPRP, 0.179. For the sequence RRIRTRPPRLPRPRPRPQARPRP, the “shrunken log2 fold change” value is -0.0339. For RRIRYRPPRLPRPRPRPSCIPRP, the “shrunken log2 fold change” value was -0.118. Regarding RRIRYRPPRLPRPRPRPMAAPRP, the “shrunken log2 fold change” value was -0.115.

RRIRDRPPRLPRPRPRPLSPPRP: the “shrunken log2 fold change” value is -0.0511.

Regarding RRIRARPPRLPRPRPRPTGHPRP, the “shrunken log2 fold change” value is -0.132. As for RRIRYRPPRLPRPRPRPPVMPRP, the figure is -0.355. Consider RRIRWRPPRLPRPRPRPPSQPRP, for which the “shrunken log2 fold change” value was 0.452. As for RRIRFRPPRLPRPRPRPTVFPRP, the “shrunken log2 fold change” value is -0.0947. As for RRIRCRPPRLPRPRPRPLNIPRP, the figure is -0.379; as for RRIRRRPPRLPRPRPRPMILPRP, 0.359. Take RRIRKRPPRLPRPRPRPRIAPRP: the “shrunken log2 fold change” value came to 0.599. As for RRIRCRPPRLPRPRPRPDCEPRP, the “shrunken log2 fold change” value is -0.0299. In the case of RRIRYRPPRLPRPRPRPYHYPRP, the “shrunken log2 fold change” value is -0.556.

Take RRIRQRPPRLPRPRPRPSGMPRP: the “shrunken log2 fold change” value is -0.143. For RRIRFRPPRLPRPRPRPIQQPRP, the “shrunken log2 fold change” value stood at 0.056. For the sequence RRIRQRPPRLPRPRPRPKFQPRP, the “shrunken log2 fold change” value came out at 0.022. Take RRIRHRPPRLPRPRPRPLTTPRP: the “shrunken log2 fold change” value was -0.142. Consider RRIRARPPRLPRPRPRPDAGPRP, for which the “shrunken log2 fold change” value was determined as 0.94.

As for RRIRSRPPRLPRPRPRPFYRPRP, the “shrunken log2 fold change” value was -0.271. With RRIRVRPPRLPRPRPRPMYRPRP the figure was 0.0262; with RRIRRRPPRLPRPRPRPVVKPRP, -0.0155; with RRIRQRPPRLPRPRPRPDVAPRP, -0.116. As for RRIRWRPPRLPRPRPRPAYGPRP, the “shrunken log2 fold change” value was -0.213. With RRIRFRPPRLPRPRPRPTTNPRP the figure was -0.2. On to RRIRARPPRLPRPRPRPWFAPRP, for which the “shrunken log2 fold change” value was determined as 0.212. For the sequence RRIRKRPPRLPRPRPRPHYKPRP, the “shrunken log2 fold change” value was -0.446. As for RRIRLRPPRLPRPRPRPFNYPRP, the figure is -0.817; as for RRIRPRPPRLPRPRPRPEDHPRP, -0.131; as for RRIRYRPPRLPRPRPRPFQMPRP, -0.143. For RRIRARPPRLPRPRPRPQNAPRP, the “shrunken log2 fold change” value came out at 0.243. For RRIRLRPPRLPRPRPRPNTSPRP, the “shrunken log2 fold change” value was -0.333. As to RRIRSRPPRLPRPRPRPCAEPRP, the “shrunken log2 fold change” value amounted to 0.0817. For RRIRDRPPRLPRPRPRPLDKPRP, the “shrunken log2 fold change” value was -0.0615. Take RRIRWRPPRLPRPRPRPKFHPRP: the “shrunken log2 fold change” value was -0.249. As to RRIRIRPPRLPRPRPRPLMCPRP, the “shrunken log2 fold change” value is -0.164. Consider RRIRTRPPRLPRPRPRPRVEPRP, for which the “shrunken log2 fold change” value is 0.073. In the case of RRIRYRPPRLPRPRPRPDKAPRP, the “shrunken log2 fold change” value worked out at 0.0133. For RRIRRRPPRLPRPRPRPGPWPRP, the “shrunken log2 fold change” value was 0.523. RRIRPRPPRLPRPRPRPFFCPRP: the “shrunken log2 fold change” value amounted to 0.0262. As for RRIRSRPPRLPRPRPRPADRPRP, the “shrunken log2 fold change” value stood at 0.308.

Turning to RRIRVRPPRLPRPRPRPVGGPRP, the “shrunken log2 fold change” value amounted to 0.306. As to RRIRARPPRLPRPRPRPHCIPRP, the “shrunken log2 fold change” value is 0.102. Consider RRIRKRPPRLPRPRPRPFAYPRP, for which the “shrunken log2 fold change” value stood at 0.0165. Turning to RRIRQRPPRLPRPRPRPVYAPRP, the “shrunken log2 fold change” value amounted to 0.16. As for RRIRNRPPRLPRPRPRPGKWPRP, the figure is -0.0427. With RRIRSRPPRLPRPRPRPVDIPRP, the “shrunken log2 fold change” value was determined as 0.147.

Turning to RRIRGRPPRLPRPRPRPMQNPRP, the “shrunken log2 fold change” value is 0.873. In the case of RRIRRRPPRLPRPRPRPCCPPRP, the “shrunken log2 fold change” value turned out to be 0.467. Take RRIRVRPPRLPRPRPRPLFRPRP: the “shrunken log2 fold change” value is -0.134. In the case of RRIRDRPPRLPRPRPRPLWKPRP, the “shrunken log2 fold change” value amounted to 0.0179.

RRIRARPPRLPRPRPRPFPFPRP: the “shrunken log2 fold change” value is -0.112. With RRIRERPPRLPRPRPRPFQWPRP the figure was 0.0371; with RRIRIRPPRLPRPRPRPDIGPRP, -0.251. Turning to RRIRARPPRLPRPRPRPAHVPRP, the “shrunken log2 fold change” value stood at 0.0804. With RRIRMRPPRLPRPRPRPMPNPRP the figure was 0.154; with RRIRERPPRLPRPRPRPELKPRP, 0.138. As for RRIRRRPPRLPRPRPRPQEGPRP, the “shrunken log2 fold change” value is -0.0768. As for RRIRRRPPRLPRPRPRPFESPRP, the “shrunken log2 fold change” value is -0.0115. Take RRIRWRPPRLPRPRPRPCFMPRP: the “shrunken log2 fold change” value is -0.0873. With RRIRTRPPRLPRPRPRPLCHPRP the figure was -0.175; with RRIRPRPPRLPRPRPRPCRTPRP, -0.194; with RRIRVRPPRLPRPRPRPPACPRP, 0.692.

Consider RRIRCRPPRLPRPRPRPSYSPRP, for which the “shrunken log2 fold change” value is -1.04.

In the case of RRIRVRPPRLPRPRPRPEWTPRP, the “shrunken log2 fold change” value is 0.171. With RRIRPRPPRLPRPRPRPPVRPRP, the “shrunken log2 fold change” value was determined as 0.353. With RRIRKRPPRLPRPRPRPLQTPRP, the “shrunken log2 fold change” value was determined as 0.182. Consider RRIRSRPPRLPRPRPRPLTMPRP, for which the “shrunken log2 fold change” value is -0.242. On to RRIRRRPPRLPRPRPRPRNIPRP, for which the “shrunken log2 fold change” value is -0.0349.

As for RRIRCRPPRLPRPRPRPKETPRP, the “shrunken log2 fold change” value was -0.0766.

For the sequence RRIRMRPPRLPRPRPRPATQPRP, the “shrunken log2 fold change” value was 1.14. As for RRIRTRPPRLPRPRPRPGVSPRP, the figure is -0.221; as for RRIRFRPPRLPRPRPRPTMFPRP, -0.322. Consider RRIRYRPPRLPRPRPRPYGFPRP, for which the “shrunken log2 fold change” value is -0.182. In the case of RRIRHRPPRLPRPRPRPIVLPRP, the “shrunken log2 fold change” value was found to be 0.00695. As for RRIRNRPPRLPRPRPRPNDIPRP, the figure is -0.418; as for RRIRNRPPRLPRPRPRPQVPPRP, 0.0184. As for RRIRERPPRLPRPRPRPFNWPRP, the figure is 0.00763.

For RRIRGRPPRLPRPRPRPDWEPRP, the “shrunken log2 fold change” value was determined as 0.166. RRIRKRPPRLPRPRPRPVFYPRP: the “shrunken log2 fold change” value was -0.0751. Regarding RRIRERPPRLPRPRPRPCAIPRP, the “shrunken log2 fold change” value was -0.15.

With RRIRIRPPRLPRPRPRPHLPPRP, the “shrunken log2 fold change” value is -0.0411.

As for RRIRRRPPRLPRPRPRPWPQPRP, the “shrunken log2 fold change” value was found to be 0.101. For RRIRCRPPRLPRPRPRPRYEPRP, the “shrunken log2 fold change” value is -0.0468. With RRIRQRPPRLPRPRPRPYGNPRP, the “shrunken log2 fold change” value was -0.0235. With RRIRWRPPRLPRPRPRPINKPRP the figure was -0.431; with RRIRHRPPRLPRPRPRPRVGPRP, 0.371.

For RRIRGRPPRLPRPRPRPRANPRP, the “shrunken log2 fold change” value is 0.816. Regarding RRIRKRPPRLPRPRPRPCTKPRP, the “shrunken log2 fold change” value came to 0.0518. Turning to RRIRYRPPRLPRPRPRPLLGPRP, the “shrunken log2 fold change” value was -0.25. Take RRIRGRPPRLPRPRPRPVPRPRP: the “shrunken log2 fold change” value came out at 0.806. As for RRIRGRPPRLPRPRPRPRFGPRP, the figure is 0.662. For RRIRIRPPRLPRPRPRPHVWPRP, the “shrunken log2 fold change” value is -0.287. Consider RRIRARPPRLPRPRPRPEEQPRP, for which the “shrunken log2 fold change” value was determined as 1.97. Turning to RRIRYRPPRLPRPRPRPLHTPRP, the “shrunken log2 fold change” value was -0.169. For the sequence RRIRYRPPRLPRPRPRPCIIPRP, the “shrunken log2 fold change” value was -1.51.

Turning to RRIRGRPPRLPRPRPRPQAPPRP, the “shrunken log2 fold change” value stood at 0.662.

For the sequence RRIRIRPPRLPRPRPRPCCHPRP, the “shrunken log2 fold change” value is -0.486.

Take RRIRCRPPRLPRPRPRPVDMPRP: the “shrunken log2 fold change” value was -0.247. On to RRIRHRPPRLPRPRPRPDTPPRP, for which the “shrunken log2 fold change” value was -0.0405.

Take RRIRQRPPRLPRPRPRPRMSPRP: the “shrunken log2 fold change” value turned out to be 0.208. As to RRIRPRPPRLPRPRPRPPSRPRP, the “shrunken log2 fold change” value came out at 0.353. Regarding RRIRDRPPRLPRPRPRPKWTPRP, the “shrunken log2 fold change” value stood at 0.0796.

As to RRIRCRPPRLPRPRPRPRLYPRP, the “shrunken log2 fold change” value was -0.307.

For the sequence RRIRRRPPRLPRPRPRPPGNPRP, the “shrunken log2 fold change” value is 0.428. Take RRIRRRPPRLPRPRPRPPWQPRP: the “shrunken log2 fold change” value was 2.01.

As for RRIRRRPPRLPRPRPRPLPYPRP, the “shrunken log2 fold change” value was -0.0149. For the sequence RRIRGRPPRLPRPRPRPNAKPRP, the “shrunken log2 fold change” value was found to be 1.22.

In the case of RRIRVRPPRLPRPRPRPMFIPRP, the “shrunken log2 fold change” value was -0.384. Turning to RRIRLRPPRLPRPRPRPWWMPRP, the “shrunken log2 fold change” value is -0.0102.

In the case of RRIRQRPPRLPRPRPRPWWLPRP, the “shrunken log2 fold change” value worked out at 0.27. With RRIRIRPPRLPRPRPRPTDAPRP the figure was -0.0317; with RRIRYRPPRLPRPRPRPKVMPRP, -0.296. Take RRIRRRPPRLPRPRPRPDLLPRP: the “shrunken log2 fold change” value amounted to 0.0733. As to RRIRKRPPRLPRPRPRPANRPRP, the “shrunken log2 fold change” value was determined as 0.167. In the case of RRIRERPPRLPRPRPRPARDPRP, the “shrunken log2 fold change” value was determined as 0.19.

Take RRIRIRPPRLPRPRPRPNSKPRP: the “shrunken log2 fold change” value is -0.899. As for RRIRKRPPRLPRPRPRPLEWPRP, the figure is -0.0047; as for RRIRRRPPRLPRPRPRPWCCPRP, -0.0571.
